Assay results from patent publication US20250263469A1 (HOSPITAL FOR SICK CHILDREN, published 2025).

Legend:
mouse FcRn [1] = target: T1, mouse FcRn (mouse, UniProt Q61559 22-297; P01887 21-119)
T1 sequence (looked up) 1: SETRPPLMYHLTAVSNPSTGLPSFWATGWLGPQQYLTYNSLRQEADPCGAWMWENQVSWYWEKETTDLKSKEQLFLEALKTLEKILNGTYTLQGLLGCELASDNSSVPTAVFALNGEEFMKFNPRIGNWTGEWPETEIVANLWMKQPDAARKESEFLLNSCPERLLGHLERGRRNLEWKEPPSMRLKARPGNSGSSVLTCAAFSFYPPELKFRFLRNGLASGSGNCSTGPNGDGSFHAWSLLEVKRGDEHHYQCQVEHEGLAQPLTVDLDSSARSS
T1 sequence (looked up) 2: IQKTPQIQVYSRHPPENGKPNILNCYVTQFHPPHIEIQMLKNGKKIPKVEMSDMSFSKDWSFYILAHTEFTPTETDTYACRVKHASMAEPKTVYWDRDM

mouse FcRn [2] = target: T1, mouse FcRn; experiment: pH 5.6

B1: mouse surrogate Multabody (HD37, mouse ferritin), LALAP Fc (other, not shown: a dimerising Fc or GST; large carriers; small tags and cut ends)
chain 1: KPCPPCKCPAPNAAGGPSVFIFPPKIKDVLMISLSPIVTCVVVDVSEDDPDVQISWFVNNVEVHTAQTQTHREDYNSTLRVVSALPIQHQDWMSGKEFKCKVNNKDLGAPIERTISKPKGSVRAPQVYVLPPPEEEMTKKQVTLTCMVTDFMPEDIYVEWTNNGKTELNYKNTEPVLDSDGSYFMYSKLRVEKKNWVERNSYSCSVVHEGLHNHHTTKSFSRTPGKGGSSGSGSGSTGTSSSGTGTSAGTTGTSASTSGSGSGGGGGSGGGGSAGGTATAGASSGSGSSGSSSSGGTGKPCPPCKCPAPNAAGGPSVFIFPPKIKDVLMISLSPIVTCVVVDVSEDDPDVQISWFVNNVEVHTAQTQTHREDYNSTLRVVSALPIQHQDWMSGKEFKCKVNNKDLGAPIERTISKPKGSVRAPQVYVLPPPEEEMTKKQVTLTCMVTDFMPEDIYVEWTNNGKTELNYKNTEPVLDSDGSYFMYSKLRVEKKNWVERNSYSCSVVHEGLHNHHTTKSFSRTPGKSRASTASSASSGGGGGGSGGSGGSGGSMTSQIRQNYSTEVEAAVNRLVNLHLRASYTYLSLGFFFDRDDVALEGVGHFFRELAEEKREGAERLLEFQNDRGGRALFQDVQKPSQDEWGKTQEAMEAALAMEKNLNQALLDLHALGSARTDPHLCDFLESHYLDKEVKLIKKMGNHLTNLRRVAGPQPAQTGAPQGSLGEYLFERLTLKHD
chain 2: MTSQIRQNYSTEVEAAVNRLVNLHLRASYTYLSLGFFFDRDDVALEGVGHFFRELAEEKREGAERLLEFQNDRGGRALFQDVQKPSQDEWGKTQEAMEAALAMEKNLNQALLDLHALGSARTDPHLCDFLESHYLDKEVKLIKKMGNHLTNLRRVAGPQPAQTGAPQGSLGEYLFERLTLKHD
notes: also called mLALAP MB; Fc-modified MB (LALAP mutation)
Question: What does the source list for B1?
Answer: kon (mouse FcRn [1]): 2.4e+06 M⁻¹ s⁻¹; Kd (mouse FcRn [2]): < 1 pM; koff (mouse FcRn [2]): < 1e-07 s⁻¹
